Experimental data: the domain aggregation screens of Martell et al. (2025)

Assay: soluble fraction after stress (log2 fold change); higher = more stays soluble; pooled small domains, quantitative proteomics
Settings: stress: pH 4
Method in brief: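 Aggregation propensity is estimated from the fold change in each domain's soluble amount after acid stress. Pooled small-domain libraries were stressed at pH 4, and higher log2 values mean more stayed soluble.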

Sequence | soluble fraction (log2)
HMDSLQDFAYEEIKKRIQNGEYAPGTKLNTQEISDSLGISRSPVLAAINRLIALGLVEATPRKGTTVA | -0.0359
HMDSLSGQQGRVLEEINGFLQTGKVLLNGMEWSAVSKQPEDILPVDTEVVVVRVEGAHLVVKKA | -0.488
HMDSPRITMDQLRIGLYVYLDLTWFQHPFAFSHFKINSEDQIKTILGLGLKSVRYDPALSDPV | -0.645
HMDSQSVFADLVKSLSQKIASIPVWFEYTKNEQYDLISSYVSAKLKDLGVEFSQEEKEKFITMFMNS | -0.34
HMDSRQIIAALQARYADETGITALKIKFNNVLGYFVDVPARYGDPLMKPPLSETFIHRQTLASNVRF | -0.0558
HMDSSITLMRMYIPKGHNWENKLISDVSMPTNSLALMIKRNGTTIIPKGDTMILAKDTLILSVPSYEPS | -1.86
HMDSSNLSLIAGVGPTIEKKLRAAGITSWEQIAAWTEADVAKYDEELNLRGRITRDEWIEQAKELLAGKPP | 0.309
HMDSTLDLVATQGGRLDQVLAEMIPEHSRNRLQHWIKAGRVLVDGQPVLEPKHKIYGGEDLAVRVD | 0.123
HMDSVSAVRTTHLNSYVLLLEKDGMAAATISRYIASMKGFFEYLFREHMIEEDPAFTLKPPKV | 0.0461
HMDSVVPNVVGMTAEKANKALTDAGLNVKITGATIGSGAVVHSQSIPAGTVTSKGTVVSIEMRFAAAEGD | -0.193
HMDSYSILGIEKESSMEDIEKAYIDKISKIKKEVKNEKNAAAFEAVLTKAYNDILSQKENISEEQELAE | 0.22
HMDTAGSVAIVSKSVIENGFGEIKYKGTYFKAQSDVYIPKDQMVKVIGKGDEQGSFLIVEKLN | -0.0172
HMDTIASESVRNRIEELISNENPKKPLSDQALVKMLQEFDIKIARRTVAKYREMLKIPPSSKRKQV | 0.0429
HMDTIGSKVLAFLAGNLLDPTPFNYRFGYLYLNRTSKVIVEETDTYIDSGMRMTQEAVAEIMQKFAQ | -2.74
HMDTITMAGERYAVSDLEKVSGDIFEKAFGFEIDPKTADAKDVLPTMPKSDVDLFKKLSGIKP | -0.0953
HMDTIYPFNPNFIDDYKGYVLGLNTNEIDRLLKYRSKGNWINSAEDFKKVTGIDDALLNKLSKSFKFPDWL | -0.991
HMDTLRPLGRYQNVHLTKQELTALQSEFSDWSERIERLSSYMASTGRKYQNHAATIRLWAEKDK | 0.161
HMDTMINLIGLNLKKAKKELSNLGVNVKKVRYKKSSVYDEGVVIDQSIEAGRNIKNGDFITITVSSGKA | -0.0745
HMDTNEPFAQLQLRFTDPIQYDYEVIRPVVLFSQSVTDRSDETEMPRTTVREKARQFVTEGMLGLVDK | -0.216
HMDTNTIIGLRIKALRTEKKYTLKYLSENSGLSIGFLSQLERGMTSVAIDSLDKISKVLDVELSSFFN | -0.65
HMDTPMQEAVLQRLRDKVAQAAAGSKLPTVRQLIADYGVGQHVIQAALEKLRTEGLITSHVGKGTFVG | 0.142
HMDTPMYMAIIEEVRFQIANEILKEGEQLPSIRNLAKTLKVSVITVKRAYKELEEAGYITTIPAKGSKVS | -0.167
HMDTQKYDLNDDGRFDVQDVTYLQIKIAGDGELTDNQKKIADYNNDGKIDVQDVTSAQMLIS | -0.724
HMDTSADEVKQLIASFVEQEDKRKPLSDQKIVELLAEKEQKISRRTVAKYRDALNIPSSSKRKRF | -0.141
HMDTSISHLVGRTGEAVTDLRPAGTVMIDGELYDARATEGFIEKGEIVKAIKYQYGQLNVRRVSK | 0.149
HMDTVSYSTLLRDIDAKEIKQLDLVPGRREVRVQYNDGRRVTVPVFANDNQILRAAESSGTPLTVV | 0.0175

Sequence | soluble fraction (log2)
HMDVADITGTRKAAILLLTMDEELSKELLKEFERHEIEAIGKEIANIKYIPENIVKQVHSEFLKNINKS | -0.752
HMDVFTAKTASHIQELREKLGQQAVFGRSDVQNALGLKATRSSALLREMAEHGIIEPVTGYGKGRYHFRS | 0.361
HMDVIDDAQAMEIALEDAGLSMDDLDRYELELHTKRSELVYSIELKSGTEEYEYDLRAADGTILKRDTDF | -0.799
HMDVLDVADNVNDDMSFADAFAAARSEVGAGGIFYWHGKAYGTYYENEWAGMSEEDKADYWDAVARTTS | -0.779
HMDVLSPEEWIEFRTAYNNNRYISQYGSKGATIEDDYATRLAMIGGKESYYFLNDPRWTEPGYGNLK | -1.45
HMDVMNEIQQKAFDIYIQSASLKNDFTPISERALAKKLHDMGLKSSMSAIGRWKKKFGWVQSLQNKVTLA | -0.183
HMDVNKDLLGETLEKAKSYKADDWRKASYEALQKAIVEAEAVYKDEEADQVAVDRKVAALNKAINNLEAKG | 0.241
HMDVNPETLSYYIERADISLDELRTSVKGIDLFLTGEKQPTFNQISNIAKKLNIPTGLLLINKPIEI | -1.37
HMDVNSRIRQFLKKMKITVQTFESSIGKTNGYIAHTKSPTAGVLAEIAKVYPDLNLDWLITGEGEMLKN | -0.0635
HMDVPTSSITEVKKSPMDVFAQARKAETGVYIFNREKIAGVMLTKEQYEALVEELNTLRDTL | -1.24
HMDVQEILGALSPDEKAAIGQLTSGEKHIDQIIAATRLPAARITSALTLLQIKGYVRALPGKRFSLTEKQ | ≥ 0.43
HMDVQPTTTKTMFYTVQQGETLFSISRKFGISVEEITKKNPLASSGLTVGMELLLPEKKEINSTIQS | -0.0195
HMDVSEITTIKWIIKETKLGINEKILIYVNSKNFTVETLMEGFEIMSKYLVENVSSDKIVYIKN | 0.22
HMDVTDRLARRLQGLRSAQGLSLDALAARSGVSRSNISLIERGQSSPTATVLDKLSAALGVTLAALFEEP | 0.00664
HMDWVAYGAELRRRRLLAGWTVAELSRRINLSGMTIHQIEKGRGRLRPSELTLAKLAAALGMPTP | ≥ 0.43
HMDYEVPEELEEKFSENPQFKEAFDNLTPGRQHQYIYHISQAKRSQTRINRIEKYYEHILNGKGMQD | 0.416
HMDYGTATASAILYLEKIDPENPYLLLAKDTITTNPKMSVNFALKGIIESKKGEKEENLNKALEIMSSL | 0.0949
HMDYKSNLQEMVQTTKKSVTYELVKEEGPAHDRTFTMNVIVDGIVLGTGTAKSKKEAEQEAAHQALEKKA | -0.0453
HMDYTGIPQSLLDLMKKDNIMPMQIQRAVAERNYYPVDTPISNYDPMFIEAKLVGAWDQVLNVISHLDLP | -1.51
HMDYTPIEVKDLPQAIQDALTKNFSEYTVKSAAYQEDEDGVKIYQVTVVDEEGTEANIFFTEKGE | 0.00729
HMEADERRNEILDAAETLITEKGYSKTTIIDILNQVGIAKGTFYYYFKSKEEVMDAIIERFI | -1.33
HMEAEGLDFAPMPGEIGKKLWQEVSKEAWAGWLKHQTMLVNENRLSFVDPAARKYLTEQTEAYFFG | -0.248
HMEAEMLYQVKVKITNLVIRSGAGAIYPIVKRYASGVLPIYEEKNGYGKIAVGQWISLSPEFVERVD | -0.0106
HMEAEPRLLDLPPGTRAGRLDKVLAQLLPEHSRSRLQGWIERGGVLVNGKEASVRQVVGPGDQLTVWEEAA | 0.0341
HMEAEQLEAIRSALQQLSDMNRTVFNLHVVDGYKHEEIAAMLNITTGTSKAHLHRAKKRLRELID | -0.745
HMEAEVIKTASDMADRNGLHNVSLKAIAENLGIRTPSLYNHIGSLDELLREIAHSGMRTMNE | -0.247

Sequence | soluble fraction (log2)
HMEAFAEAVASMLRKLQPEFAIDLVGPRELLVNGRRLDLENLYRMVNHEPVRGQEIVEHYLDQLFAG | -0.665
HMEAGLRMPEQLTAFSALALLQKVRDSGPLTDAQKEQLDADVLRIEASHFGKADREALELEEILKQWLSRV | -0.889
HMEAKSSTKALLDVVLGRNGVSTANVAKSLNISVQNASTRLKKLSSEGVIMRSEVSSPTGGIEFIYS | 0.22
HMEAKTSNPDYHARLGLTEGEGNDSALGVSVKAAEGGFGLLFGNKVGSDQLVRFANEDQVWLVNRALS | 0.0693
HMEALNIEQKKVEIINVLLEKGKGKGRLSYKEISDQIDTVELDKDQMDELYETLMTNGIEIV | -1.43
HMEALPSNLRRLRLEAQLTLDRLGALSGVSRAMISKIERGASVPTATMLGKLAAALQVSLSQLL | -0.263
HMEAMITEVKRINYGLISDISKSLDPFKSEGGHIIVDKRTNTFILTDLRANIEKMLWSIEIMD | -0.248
HMEAPNELLVPEGARPARADRVLAAAFPEHSRTALQRAFDAGLVRRANLVLSRDTAVAGGDRIAFSLPAV | 0.0302
HMEARYQLREVSLDGLRSGMILNADVLSTDGVLMARKGLEVSGLLRSRLEAFAKMERIEPTFKVLVPIAPP | 0.284
HMEASSTAIQAMIRRLIDDENPRKPLSDAKLADLLKSSGIPVARRTVAKYREAMNISASHERVRI | 0.17
HMEATEFYLEDLTGQMYNDVVNDEKYAGKIVFEKEEVQSDGEEAIGQILNQRPAGNMNVRIGTTVTLVVNA | -0.201
HMEATVGSRVRLARIGLTLTQKQLAQAVGVSANHLAMVERGSKHASEDLLQRIATATHTTYEWLMGTSEHQ | 0.174
HMEAVIENAAIIKQNSGGYAVRATVNGVDLGMKPVERATALLYFSLTDKLEKDRLLSHTLQKTYGDLSA | -0.213
HMEAYLPVTVVSDGKILTGNLEKAGKNEKWLENVLSELKTDVKNTLLLTVDPKDGLIFYPKG | 0.0447
HMEAYMVPNVKNKTLNEAQQALSNQKLKGLVIDSSYVKGVPDGMVLDQNPAGGARVKEGRTIYLTVTTS | 0.259
HMEDADERRALEVLNQLLDLPEREQEAALAALSLPPALARRVRSLLSVQTRAADLFDTAPSP | -0.6
HMEDAFLQRLISIIEANLSNVDFNVKMLAEQLNMSQPTLYRKVKQRSELSVIDMIRSIRILSLIHISEPTR | -0.919
HMEDDRLIQNLLLTAKNLVMDVGRMDESALAENEDTVRTAMLFALGYLYENRSNPDYHKLTLNLRSILFA | -0.807
HMEDEISLGAINVPRGSVIVTAGGARLVEGSDYTVDYYSGTVKILNKSLLDAGTPINVSLET | -0.0859
HMEDETAKVLRLLAENNGYLPYNDKSDPTDIYAFFGMSKKAFKMTTGNLYKQKKIQFTQTGIQLIE | -0.16
HMEDEVSSSAAYQALLEKGVSKTLARSWVIDYGEAYVLDKVDLTTSQAARGKIKSSTAGFLKAAIEEDFHN | -0.765
HMEDGEALARAVASLPGKYREVLFLKYSHGYSVDEIALILSMSKENVKKTIQRARKKLEQLLESE | -0.507
HMEDGEVTVPDLRGLTIKEAGTILEKLGLHLSPVGTGLAVRQDVAPGSKVARDTTITVEFEPPDIQVLR | -0.259
HMEDIKHVVANNIKKYRKEERLTLQQLSYLTGVSKTMLNQIETEKSSPSITILWRISSGLKIPLSKLISSP | 0.143
